Reference: the supplement of paper PMC7877785
± gives the uncertainty stated by the source.

Assay: self-splicing fitness, log relative to wild type (ln ratio); higher = more splicing; Tetrahymena group I intron in knt gene, E. coli kanamycin selection, DiMSum; sequences stand for … in CUCUCU…GGAGGGAAAAGUUAUCAGGCAUGCACCUGGUAGCUAGUCUUUAAACCAAUAGAUUGCAUCGGUUUAAAAGGCAAGACCGUCAAAUUGCGGGAAAGGGGUCAACAGCCGUUCAGUACCAAGUCUCAGGGGAAACUUUGAGAUGGCCUUGCAAAGGGUAUGGUAAUAAGCUGACGGACAUGGUCCUAACCACGCAGCCAAGUCCUAAGUCAACAGAUCUUCUGUUGAUAUGGAUGCAGUUCACAGACUAAAUGUCGGUCGGGGAAGAUGUAUUCUUCUCAUAAGAUAUAGUCGGACCUCUCCUUAAUGGGAGCUAGCGGAUGAAGUGAUGCAACACUGGAGCCGCUGGGAACUAAUUUGUAUGCGAAAGUAUAUUGAUUAGUUUUGGAGUACUCGUGGUCG
In short: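 The eight P1ex-region nucleotides of an intron in the knt kanamycin-resistance gene on pET-22b(+) were all randomised and the library put into E. coli BL21(DE3). Six replicate transformations were grown overnight at 37°C or 30°C on LB agar with or without 25 μg/mL kanamycin, together with 100 μg/mL carbenicillin, 50 μM IPTG and 0.2% rhamnose. Colonies were pooled and amplicon-sequenced on an Illumina HiSeq 2500. Fitness from DiMSum is the error-weighted combination of wild-type-normalised replicate fold changes, kanamycin over none.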

Sequence | self-splicing fitness (ln) (30 °C) | self-splicing fitness (ln) (37 °C)
ACUAAGCAAUAUUACGAUUA | -0.928 ± 0.12 | -0.502 ± 0.1
ACUAAGCAAUAUUACGCCUA | -1.41 ± 0.13 | -0.734 ± 0.13
ACUAAGCAAUAUUACGCUCG | -0.345 ± 0.09 | -0.528 ± 0.11
ACUAAGCAAUAUUACGCUGA | -2.16 ± 0.17 | -1.31 ± 0.15
ACUAAGCAAUAUUACGGAAA | -2.78 ± 0.37 | -1.7 ± 0.23
ACUAAGCAAUAUUACGGAUC | -2.21 ± 0.13 | -1.3 ± 0.14
ACUAAGCAAUAUUACGGCGC | -0.144 ± 0.099 | -0.477 ± 0.096
ACUAAGCAAUAUUACGGGAU | -2.17 ± 0.073 | -1.3 ± 0.097
ACUAAGCAAUAUUACGGUAU | -3.24 ± 0.17 | -1.73 ± 0.13
ACUAAGCAAUAUUACGUAAC | -4.39 ± 0.26 | -2.48 ± 0.24
ACUAAGCAAUAUUACGUUCG | -1.06 ± 0.074 | -0.408 ± 0.092
ACUAAGCAAUAUUACGUUUU | -2.55 ± 0.093 | -1.54 ± 0.1
ACUCAGCAAUAUUACGAAUA | -1.99 ± 0.14 | -0.941 ± 0.15
ACUCAGCAAUAUUACGACCA | -1.19 ± 0.084 | -0.64 ± 0.12
ACUCAGCAAUAUUACGACCC | -0.845 ± 0.19 | -2.22 ± 0.22
ACUCAGCAAUAUUACGACUC | -0.493 ± 0.054 | -0.0647 ± 0.068
ACUCAGCAAUAUUACGCAUC | -2.72 ± 0.15 | -1.48 ± 0.11
ACUCAGCAAUAUUACGCCAA | -1.12 ± 0.17 | -2.5 ± 0.21
ACUCAGCAAUAUUACGCGAC | -2.16 ± 0.14 | -1.85 ± 0.15
ACUCAGCAAUAUUACGCGCU | -1.41 ± 0.14 | -0.1 ± 0.16
ACUCAGCAAUAUUACGCGGC | -3.2 ± 0.25 | 
ACUCAGCAAUAUUACGCUCU | -0.15 ± 0.067 | 0.559 ± 0.094
ACUCAGCAAUAUUACGCUUA | -1.14 ± 0.14 | -0.0124 ± 0.12
ACUCAGCAAUAUUACGGCAA | -1.24 ± 0.094 | -0.795 ± 0.099
ACUCAGCAAUAUUACGGCCC | -1.32 ± 0.15 | -0.343 ± 0.19

Sequence | self-splicing fitness (ln) (30 °C) | self-splicing fitness (ln) (37 °C)
ACUCAGCAAUAUUACGGCCU | -0.0739 ± 0.079 | -0.0329 ± 0.099
ACUCAGCAAUAUUACGGCUA | -0.553 ± 0.089 | 0.149 ± 0.093
ACUCAGCAAUAUUACGGGCU | -0.98 ± 0.067 | -0.954 ± 0.095
ACUCAGCAAUAUUACGGGUU | -3.64 ± 0.17 | -2.37 ± 0.19
ACUCAGCAAUAUUACGGUGU | -2.56 ± 0.085 | -1.34 ± 0.079
ACUCAGCAAUAUUACGGUUG | -4.32 ± 0.17 | -2.77 ± 0.18
ACUCAGCAAUAUUACGUAUA | -2.19 ± 0.11 | -1.11 ± 0.1
ACUCAGCAAUAUUACGUCAC | -3.57 ± 0.15 | -1.97 ± 0.15
ACUCAGCAAUAUUACGUCAG | -2.31 ± 0.1 | -2.68 ± 0.17
ACUCAGCAAUAUUACGUGGC | -3.04 ± 0.14 | -2.9 ± 0.17
ACUCAGCAAUAUUACGUGGG | -3.7 ± 0.18 | -2.9 ± 0.2
ACUCAGCAAUAUUACGUGUC | -3.74 ± 0.16 | -2.21 ± 0.17
ACUCAGCAAUAUUACGUGUU | -3.14 ± 0.1 | -1.28 ± 0.088
ACUGAGCAAUAUUACGACAA | -2.96 ± 0.2 | -2.4 ± 0.23
ACUGAGCAAUAUUACGACGA | -1.3 ± 0.13 | -0.569 ± 0.12
ACUGAGCAAUAUUACGACUG | -3.2 ± 0.34 | -1.68 ± 0.23
ACUGAGCAAUAUUACGACUU | -1.4 ± 0.11 | -0.511 ± 0.14
ACUGAGCAAUAUUACGAUUA | -3.39 ± 0.3 | -1.78 ± 0.18
ACUGAGCAAUAUUACGCAAA | -2.29 ± 0.38 | -1.93 ± 0.34
ACUGAGCAAUAUUACGCACU | -0.721 ± 0.13 | -0.386 ± 0.17
ACUGAGCAAUAUUACGCCCC | -2.6 ± 0.34 | 
ACUGAGCAAUAUUACGCCGA | -3.61 ± 0.47 | -1.33 ± 0.23
ACUGAGCAAUAUUACGCCGG | -2.48 ± 0.3 | 
ACUGAGCAAUAUUACGCGCG | -1.14 ± 0.11 | -0.367 ± 0.12
ACUGAGCAAUAUUACGCUAC | -3.24 ± 0.24 | 

Sequence | self-splicing fitness (ln) (30 °C) | self-splicing fitness (ln) (37 °C)
ACUGAGCAAUAUUACGCUGC |  | -1.98 ± 0.33
ACUGAGCAAUAUUACGCUUG | -3.28 ± 0.3 | -2.75 ± 0.31
ACUGAGCAAUAUUACGGAAU | -3.39 ± 0.35 | -1.87 ± 0.23
ACUGAGCAAUAUUACGGAUC |  | -1.91 ± 0.35
ACUGAGCAAUAUUACGGCAU | -0.643 ± 0.071 | -0.708 ± 0.1
ACUGAGCAAUAUUACGGCUG | -1.18 ± 0.16 | -0.804 ± 0.19
ACUGAGCAAUAUUACGGGAA | -2.94 ± 0.17 | -2.48 ± 0.24
ACUGAGCAAUAUUACGGGAU | -3.03 ± 0.17 | -2.18 ± 0.22
ACUGAGCAAUAUUACGGUGC | -3.32 ± 0.19 | -1.9 ± 0.18
ACUGAGCAAUAUUACGGUGU | -3.14 ± 0.13 | -1.41 ± 0.1
ACUGAGCAAUAUUACGUAUA | -2.58 ± 0.2 | -1.97 ± 0.25
ACUGAGCAAUAUUACGUUAC | -3.95 ± 0.3 | -2.9 ± 0.38
ACUUAGCAAUAUUACGAAGC |  | -2.25 ± 0.5
ACUUAGCAAUAUUACGACCC | 0.555 ± 0.32 | 
ACUUAGCAAUAUUACGAGUU | -2.42 ± 0.12 | -0.552 ± 0.14
ACUUAGCAAUAUUACGAUAA | -2.81 ± 0.27 | -0.457 ± 0.3
ACUUAGCAAUAUUACGCACU | -0.553 ± 0.093 | 0.532 ± 0.12
ACUUAGCAAUAUUACGCAGC | -1.98 ± 0.4 | -1.43 ± 0.19
ACUUAGCAAUAUUACGCCCC | -0.135 ± 0.33 | 
ACUUAGCAAUAUUACGCCCG | -1.55 ± 0.17 | 0.138 ± 0.28
ACUUAGCAAUAUUACGCGAU | -3.66 ± 0.36 | -1.13 ± 0.17
ACUUAGCAAUAUUACGCGCG | -1.56 ± 0.11 | -0.437 ± 0.12
ACUUAGCAAUAUUACGCGGA | -2.36 ± 0.11 | -0.613 ± 0.088
ACUUAGCAAUAUUACGCUAC | -2.59 ± 0.34 | -1.9 ± 0.33
ACUUAGCAAUAUUACGCUAU | -3.05 ± 0.24 | -2.09 ± 0.23

Sequence | self-splicing fitness (ln) (30 °C) | self-splicing fitness (ln) (37 °C)
ACUUAGCAAUAUUACGGAGA | -3.19 ± 0.28 | -2.07 ± 0.2
ACUUAGCAAUAUUACGGAGC | -3.46 ± 0.3 | -0.469 ± 0.18
ACUUAGCAAUAUUACGGGGC | -3.2 ± 0.18 | -2.55 ± 0.23
ACUUAGCAAUAUUACGGUAC | -3.36 ± 0.21 | -3.57 ± 0.42
ACUUAGCAAUAUUACGGUUC | -2.73 ± 0.16 | -3.35 ± 0.26
ACUUAGCAAUAUUACGUAAU | -2.39 ± 0.1 | -1.54 ± 0.12
ACUUAGCAAUAUUACGUCAA | -4.05 ± 0.33 | -3.36 ± 0.3
ACUUAGCAAUAUUACGUCUG | -1.82 ± 0.11 | -0.782 ± 0.15
ACUUAGCAAUAUUACGUGUA | -2.37 ± 0.11 | -1.43 ± 0.095
ACUUAGCAAUAUUACGUGUC | -3.37 ± 0.16 | -2.7 ± 0.25
ACUUAGCAAUAUUACGUUCG | -1.52 ± 0.18 | -0.802 ± 0.18
ACUUAGCAAUAUUACGUUGA | -4.69 ± 0.36 | -2.06 ± 0.12
AGAAAGCAAUAUUACGAGAA | -2.63 ± 0.27 | -1.24 ± 0.25
AGAAAGCAAUAUUACGAGAG | -3.2 ± 0.16 | -2.44 ± 0.17
AGAAAGCAAUAUUACGCCCC | -0.22 ± 0.36 | 
AGAAAGCAAUAUUACGCGGA | -2.26 ± 0.13 | -0.649 ± 0.13
AGAAAGCAAUAUUACGCGUC | -1.84 ± 0.12 | -1.32 ± 0.15
AGAAAGCAAUAUUACGCGUG | -1.72 ± 0.087 | -0.548 ± 0.093
AGAAAGCAAUAUUACGGAAU | -2.02 ± 0.15 | -1.74 ± 0.2
AGAAAGCAAUAUUACGGACA | -0.632 ± 0.2 | -0.869 ± 0.29
AGAAAGCAAUAUUACGGCAG | -0.958 ± 0.095 | -1.28 ± 0.12
AGAAAGCAAUAUUACGGCGC | -0.688 ± 0.12 | -1.01 ± 0.15
AGAAAGCAAUAUUACGGGAU | -1.14 ± 0.14 | -1.04 ± 0.12
